For orientation: Kd means the free concentration of one partner at which half of the binding sites on the other are occupied at equilibrium, for simple one-to-one binding.

The target of this assay is preformed IL-17RA-IL-17A complex (IL-17A captured by immobilised IL-17RA) (human) (UniProt Q16552). The experiment in a line: SPR, second receptor injected over IL-17A captured on immobilised IL-17RA. (In general: Surface plasmon resonance follows binding to a sensor surface in real time, without labels.)
Chain of preformed IL-17RA-IL-17A complex (IL-17A captured by immobilised IL-17RA) (human) (Q16552 other isoform, or with tags, fused parts or gaps): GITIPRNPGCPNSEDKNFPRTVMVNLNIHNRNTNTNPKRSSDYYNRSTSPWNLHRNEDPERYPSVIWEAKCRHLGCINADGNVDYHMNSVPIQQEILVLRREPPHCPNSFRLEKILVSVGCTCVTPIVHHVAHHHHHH

In the case of “IL-17RA extracellular domain (ECD) (receptor)”, the Kd was found to be 3.1 µM.

The values are drawn from patent US20140105855A1.
